From patent publication US20210115154A1 (Chugai, published 2021) come the findings set out here.

B1: MAS0114bb (antibody, human IgG4 S228P, kappa, V domains shown)
VH: QSVEESGGRLVTPGTPLTLTCTASGFDINNYAIHWVRQAPGEGLEWIGYIYARSGVTWYASWVKGRFTISKTSTTVDLKMTSLTTEDTATYFCARVLAGGGYANTGLSLWGPGTLVTVSS
VL: DIVMTQTPSSVSAAVGGTVTIKCQASQNIGYSSAWYQQKPGQRPKLMIYGASTLASGVPSRFSGSGSGTEYTLTISGVQCDDAATYYCQSNYISSGSVDGTFGGGTKVEIKR
notes: Rabbit/human chimeric antibody: rabbit variable regions recombined with F760G4 and kOMTC constant regions; also called anti-MASP-1 chimeric mAb MAS0114bb
B2: MAS0116aa (antibody, human IgG4 S228P, kappa, V domains shown)
VH: QSLEESGGRLVTPGTPLTLTCTASGFSLSSCYMSWVRQAPGEGLEWIGTIYTGSGATYYASWAKGRFTVSITSTTVDLKITSPTTEDTATYFCARAIYPGSSSSNLCAFDLWGPGTLVTVSS
VL: QVLTQTPASVSAAVGGTVTINCQASQSVYDNNWLAWYQQKPGQPPKLLIYQASSLASGVPSRFKGSGSGAQFTLTISDLECDDAATYFCQGYYAGVLYSFGGGTKVEIKR
notes: Rabbit/human chimeric antibody: rabbit variable regions recombined with F760G4 and kOMTC constant regions; also called anti-MASP-1 chimeric mAb MAS0116aa
B3: MAS0102dd (antibody, human IgG4 S228P, kappa, V domains shown)
VH: QSVEESGGRLVTPGTPLTLTCTVSGFSLSSYAMSWVRQAPGKGLEWIGIITNLDNTYYANWAKGRFTISKTSTTVDLKITSPTTEDTAAYLCARERIKRKYSYDDYGGWAFDPWGPGTLVTVSS
VL: QVLTQTPSSVSGPVGGTVTINCQAIENIYRSLAWYQQKPGQPPKLLIYDTSDLASGVPSRFSGSGSGTEYTLTISGVQCDDAATYYCQSYYYSSVTYNAFGGGTKVEIKR
notes: Rabbit/human chimeric antibody: rabbit variable regions recombined with F760G4 and kOMTC constant regions; also called anti-MASP-1 chimeric mAb MAS0102dd
B4: MAS0141aa (antibody, human IgG4 S228P, kappa, V domains shown)
VH: QSVEESGGRLVTPGTPLTLTCTASGFSLINYYMTWVRQAPGKGLEWIGIINTDGGTYYASWAKGRFTISRTSTTVDLKMTSLTTEDTATYFCARGVFTGGWTGMRTNLWGPGTLVTVSS
VL: DVVMTQTPASVEAAVGGTVTIKCQASEDIYILLAWYQQKPGQPPKLLIYAASNLESGVPSRFKGSGSGTEFTLTISDLECADAATYYCQCTYGSSSSNAFGGGTKVEIKR
notes: Rabbit/human chimeric antibody: rabbit variable regions recombined with F760G4 and kOMTC constant regions; also called anti-MASP-1 chimeric mAb MAS0141aa
B5: MAS0154dd (antibody, human IgG4 S228P, kappa, V domains shown)
VH: QSVEESGGRLVTPGTPLTLTCTVSGFSLSNYNMGWVRQAPGEGLEYIGIISSQGDIYYATWAKGRFTISKTSTTVDLKITSPTTEDTATYFCARARHVGSAADSYFHLWGLGTLVTVSS
VL: AVVLTQTASPVSAAVGGTVTINCQASEEIYRNLAWYQQKPGQRPKLLIYGASNLASGVPSRFSGSGSGTEYTLTISDLECADAATYYCQRYAWGKNSADGNTFGGGTKVEIKR
notes: Rabbit/human chimeric antibody: rabbit variable regions recombined with F760G4 and kOMTC constant regions; also called anti-MASP-1 chimeric mAb MAS0154dd
B6: MAS0177hh (antibody, human IgG4 S228P, kappa, V domains shown)
VH: QSVEESGGRLVTPGTPLTLTCTASGFSLSSAYMNWVRQAPGKGLEWIGIIYASGSTWYASWAKGRFTISKTSTTVDLKITSPTTEDTATYFCARDDYGTADLWGPGTLVTVSS
VL: AVVLTQTASPVSAPVGGTVTIKCQASQSIGSSLAWYQQKPGQSPKLLIYGASTLVSGVSSRFSGSRSGTEFSLTISDLECADAATYYCQNYYLSSSSADRRTFGGGTKVEIKR
notes: Rabbit/human chimeric antibody: rabbit variable regions recombined with F760G4 and kOMTC constant regions; also called anti-MASP-1 chimeric mAb MAS0177hh

For one assay, the target named is T1, Human MASP-3 (CCP1-CCP2-SP S664A) (human, labelled with NHS-PEG4-Biotin (sites not given)).
T1 construct: Biotinylated for the cross-reactivity ELISA; also called N-terminally Flag-tagged human MASP-3 (CCP1-CCP2-SP S664A); not shown: N-terminal Flag-tag
T1 chain: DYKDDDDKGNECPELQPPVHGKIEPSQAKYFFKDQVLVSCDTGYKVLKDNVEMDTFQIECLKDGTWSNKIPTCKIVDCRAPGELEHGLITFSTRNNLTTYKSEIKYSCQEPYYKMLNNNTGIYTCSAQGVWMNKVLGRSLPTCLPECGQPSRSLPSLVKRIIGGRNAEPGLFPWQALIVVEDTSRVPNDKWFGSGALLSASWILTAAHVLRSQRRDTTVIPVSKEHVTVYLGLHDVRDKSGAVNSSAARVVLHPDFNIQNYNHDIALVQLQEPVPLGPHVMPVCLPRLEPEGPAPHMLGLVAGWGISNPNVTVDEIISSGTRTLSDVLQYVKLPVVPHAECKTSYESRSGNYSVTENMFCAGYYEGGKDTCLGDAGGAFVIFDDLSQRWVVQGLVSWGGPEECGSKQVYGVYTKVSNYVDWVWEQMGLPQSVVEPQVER
Nature of the assay: ELISA, antibody captured by goat anti-human IgG, 8 nM biotinylated antigen, streptavidin-HRP. Here is the method:
(§1) ELISA assay was used to check the cross-reactivity of the chimeric monoclonal antibodies generated in 3.1 against human MASP-1 and human MASP-3. Goat anti-human IgG polyclonal antibody (Thermo Scientific, H10500) was diluted to 1 micro g/ml with PBS (-) and added to 384-well MAXISorp plates (Nunc, Cat No. 164688). The plates were incubated for 1 hour at room temperature, and blocked with Blocking One (Nacalai Tesque, Cat No. 03953-95) diluted 5 times. The plates were incubated for 1 hour, washed, and anti-MASP-1 antibody was added and incubated for 1 hour. Human MASP-1 (CCP1-CCP2-SP S646A) or human MASP-3 (CCP1-CCP2-SP S664A) was labelled with NHS-PEG4-Biotin (PIERCE, Cat No. 21329). After incubation, the plates were washed and 8 nM of labeled antigen was added and incubated for 1 hour. After incubation, the plates were washed and Streptavidin-HRP conjugate (Thermo Scientific 21130) were added. After 1 hour incubation, binding of biotinylated antigen was detected by the addition of ABTS (KPL, Cat No. 50-66-06). Anti-MASP-1 monoclonal antibodies listed in Table 5 were selected as MASP-1 specific antibodies and used for further analysis.
For orientation: In an ELISA, binding on a coated surface is turned into a signal by an enzyme label.
For B1, the “absorbance at 405 nm after background subtraction” value was -0.068 absorbance at 405 nm.
Regarding B2, the “absorbance at 405 nm after background subtraction” value worked out at 0.055 absorbance at 405 nm.
With B3, the “absorbance at 405 nm after background subtraction” value is -0.027 absorbance at 405 nm.
The same measure, in the same setting: next, B4: -0.147 absorbance at 405 nm; B5: 0.078 absorbance at 405 nm.
On to B6, for which the absorbance at 405 nm after background subtraction (absorbance at 405 nm) was determined as 0.388.

Another assay addresses T2, Human MASP-1 (CCP1-CCP2-SP S646A) (human, UniProt P48740 298-699, labelled with NHS-PEG4-Biotin (sites not given)).
T2 construct: biotinylated for the ELISAs; also called N-terminally Flag-tagged human MASP-1 (CCP1-CCP2-SP S646A); not shown: N-terminal Flag-tag
T2 sequence: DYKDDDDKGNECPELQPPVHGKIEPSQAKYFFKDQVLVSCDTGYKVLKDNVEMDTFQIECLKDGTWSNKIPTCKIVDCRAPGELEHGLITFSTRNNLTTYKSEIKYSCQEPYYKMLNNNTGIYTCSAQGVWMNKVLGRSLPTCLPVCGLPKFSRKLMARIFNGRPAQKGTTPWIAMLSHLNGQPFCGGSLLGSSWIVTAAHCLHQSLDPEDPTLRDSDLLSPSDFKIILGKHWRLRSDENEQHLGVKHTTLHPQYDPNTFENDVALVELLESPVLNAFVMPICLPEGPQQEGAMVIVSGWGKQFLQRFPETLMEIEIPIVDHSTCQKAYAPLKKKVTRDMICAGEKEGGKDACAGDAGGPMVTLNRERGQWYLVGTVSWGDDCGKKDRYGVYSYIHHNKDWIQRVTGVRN
The assay is described as above. Here is the method:
as §1
In the case of B1, the “absorbance at 405 nm after background subtraction” value amounted to 1.79 absorbance at 405 nm.
Consider B2, for which the “absorbance at 405 nm after background subtraction” value came to 1.72 absorbance at 405 nm.
For B3, the “absorbance at 405 nm after background subtraction” value is 1.98 absorbance at 405 nm.
Take B4: the “absorbance at 405 nm after background subtraction” value was 1.51 absorbance at 405 nm.
Take B5: the “absorbance at 405 nm after background subtraction” value is 1.95 absorbance at 405 nm.
As for B6, the “absorbance at 405 nm after background subtraction” value was 0.898 absorbance at 405 nm.

A further assay addresses T3, human MASP-1 (human, UniProt P48740 20-699).
T3 sequence: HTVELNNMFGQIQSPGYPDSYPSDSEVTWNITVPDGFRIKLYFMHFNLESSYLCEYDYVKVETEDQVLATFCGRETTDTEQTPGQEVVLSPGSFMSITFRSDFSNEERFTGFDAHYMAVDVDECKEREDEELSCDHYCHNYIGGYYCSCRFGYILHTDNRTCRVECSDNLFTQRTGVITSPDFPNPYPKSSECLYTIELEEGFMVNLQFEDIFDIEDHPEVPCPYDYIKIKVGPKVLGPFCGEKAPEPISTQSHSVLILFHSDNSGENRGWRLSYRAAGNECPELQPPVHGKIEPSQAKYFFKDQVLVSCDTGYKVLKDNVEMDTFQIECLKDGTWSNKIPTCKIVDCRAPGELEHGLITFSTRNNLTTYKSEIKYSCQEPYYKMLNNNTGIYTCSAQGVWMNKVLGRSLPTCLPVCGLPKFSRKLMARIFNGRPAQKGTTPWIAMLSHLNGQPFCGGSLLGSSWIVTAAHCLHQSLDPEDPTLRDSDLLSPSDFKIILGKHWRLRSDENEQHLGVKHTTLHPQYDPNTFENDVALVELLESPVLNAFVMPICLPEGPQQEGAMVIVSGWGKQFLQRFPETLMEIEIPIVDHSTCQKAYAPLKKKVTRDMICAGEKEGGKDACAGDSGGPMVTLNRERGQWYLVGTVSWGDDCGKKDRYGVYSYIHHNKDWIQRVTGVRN
The experiment in a line: cell-based or functional assay.
For B1, the “IC50 of inhibition of human C4c deposition (C4c ELISA, normal human serum on mannan)” value stood at 0.14 µg/mL.
Still for that read-out and setting: for B2 the value was 0.47 µg/mL; for B3, 0.29 µg/mL.
Same read-out and setting: for B4 the value was 0.45 µg/mL; for B5, 0.11 µg/mL.
Still for that read-out and setting: next, B6: 3.29 µg/mL.
